This note sets out measurements from patent US20140212436A1.

Chain of human FcγRI (human) (P12314 16-288 limits assumed): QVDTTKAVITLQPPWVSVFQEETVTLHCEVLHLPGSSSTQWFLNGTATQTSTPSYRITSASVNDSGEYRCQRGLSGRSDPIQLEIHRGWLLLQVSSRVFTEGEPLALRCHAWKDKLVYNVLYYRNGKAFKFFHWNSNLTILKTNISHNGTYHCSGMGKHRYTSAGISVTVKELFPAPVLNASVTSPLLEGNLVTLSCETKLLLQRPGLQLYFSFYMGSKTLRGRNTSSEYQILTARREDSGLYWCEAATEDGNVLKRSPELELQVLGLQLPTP

The first experiment concerns the target human FcγRI (human) (UniProt P12314). Kind of experiment: Biacore.
L235Y/S239D/S267E (antibody) gave a Fold of 1.07 and a Kd of 0.307 nM.
Taken in the same sequence, the figures for S267E/A327D (antibody) were 1.66 and 0.198 nM.
G236S (antibody) came in with a Fold of 0.0268 and a Kd of 12.3 nM.
Taken in the same sequence, the figures for S267D (antibody) were 2.11 and 0.156 nM.
With S267E/H268E/L328F (antibody), the Fold was 0.991 and the Kd was 0.333 nM.
Substance S267E/A327E (antibody) returned a Fold of 2.3 and a dissociation constant (Kd) of 0.143 nM.
Take L234W (antibody): the Kd worked out at 10.5 nM.
L235Y (antibody) displayed a Fold of 0.00232 and a Kd of 142 nM.
Substance L235I (antibody) displayed a Fold of 0.0197 and a Kd of 16.7 nM.
In turn, A327D (antibody) gave a Fold of 2.06 and a Kd of 0.16 nM.
Taken in the same sequence, the figures for V266M/S267E (antibody) were 1.98 and 0.166 nM.
As for S267E/H268E (antibody), the Fold came to 3.52 and the Kd worked out at 0.0935 nM.
As for L235A (antibody), the Fold came to 0.0179 and the Kd was determined as 18.4 nM.
Regarding L234D/S267E (antibody), the Fold stood at 0.0286 and the Kd came to 11.5 nM.
H268D (antibody) registered a Fold of 2.35 and a Kd of 0.14 nM.
For the substance L234F/S267E (antibody), the Fold was 0.661 and the dissociation constant (Kd) was 0.498 nM.
For H268E (antibody), the Fold was 2.74 and the Kd stood at 0.12 nM.
Substance S239D/S267E/L328F (antibody) yielded a Fold of 1.45 and a dissociation constant (Kd) of 0.227 nM.
Take S239E (antibody): the Fold was 1.65 and the Kd is 0.2 nM.

The target of the next experiment is recombinant human FcγRIIb protein (human) (UniProt P31994). Nature of the experiment: Biacore.
Chain of recombinant human FcγRIIb protein (human) (P31994 46-217 limits assumed): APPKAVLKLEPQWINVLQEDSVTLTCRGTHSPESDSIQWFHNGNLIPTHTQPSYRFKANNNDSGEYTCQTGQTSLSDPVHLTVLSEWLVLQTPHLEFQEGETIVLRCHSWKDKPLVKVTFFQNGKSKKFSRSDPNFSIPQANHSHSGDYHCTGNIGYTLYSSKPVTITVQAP
As for L235Y/S239D/S267E (antibody), the Fold came to 116 and the dissociation constant Kd is 12.6 nM.
For S267E/A327D (antibody), the Fold was 21.2 and the Kd was 69.1 nM.
Consider G236S (antibody), for which the Fold was determined as 1.02 and the Kd came out at 1440 nM.
Take S267D (antibody): the Fold came out at 4.45 and the Kd was 330 nM.
Consider S267E/H268E/L328F (antibody), for which the Fold stood at 344 and the dissociation constant (Kd) turned out to be 4.26 nM.
Consider S267E/A327E (antibody), for which the Fold is 30.9 and the Kd came out at 47.5 nM.
L234W (antibody): the Kd was determined as 1770 nM.
For the substance L235Y (antibody), the Fold worked out at 1.05 and the equilibrium dissociation constant (Kd) was 1400 nM.
Take L235I (antibody): the Fold was 0.908 and the Kd was 1620 nM.
Taken in the same sequence, the figures for A327D (antibody) were 1.33 and 1100 nM.
With V266M/S267E (antibody), the Fold was 29.2 and the Kd was 50.2 nM.
Consider S267E/H268E (antibody), for which the Fold stood at 40.6 and the Kd was determined as 36.1 nM.
Taken in the same sequence, the figures for L235A (antibody) were 0.351 and 4180 nM.
With L234D/S267E (antibody), the Fold was determined as 21.7 and the Kd turned out to be 67.8 nM.
Taken in the same sequence, the figures for H268D (antibody) were 3.06 and 480 nM.
Turning to L234F/S267E (antibody), the Fold was determined as 26.4 and the Kd was 55.7 nM.
For H268E (antibody), the Fold was determined as 2.62 and the Kd was found to be 560 nM.
As for S239D/S267E/L328F (antibody), the Fold was found to be 428 and the Kd amounted to 3.43 nM.
S239E (antibody): the Fold amounted to 0.803 and the Kd is 1830 nM.

A further experiment deals with human H131 FcγRIIa (human) (UniProt P12318). Nature of the experiment: Biacore.
Chain of human H131 FcγRIIa (human) (P12318 other isoform, or with tags, fused parts or gaps limits assumed): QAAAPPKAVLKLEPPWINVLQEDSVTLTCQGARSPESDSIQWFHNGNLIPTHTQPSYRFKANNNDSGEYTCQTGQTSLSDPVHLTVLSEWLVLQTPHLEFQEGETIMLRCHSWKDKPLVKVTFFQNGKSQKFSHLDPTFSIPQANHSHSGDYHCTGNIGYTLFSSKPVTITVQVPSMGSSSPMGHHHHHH
With L235Y/S239D/S267E (antibody), the Fold amounted to 1.05 and the Kd worked out at 617 nM.
In turn, G236S (antibody) gave a Fold of 3.76 and a Kd of 172 nM.
Taken in the same sequence, the figures for S267D (antibody) were 0.93 and 695 nM.
On to S267E/H268E/L328F (antibody), for which the Fold turned out to be 0.826 and the Kd was determined as 783 nM.
Consider S267E/A327E (antibody), for which the Fold stood at 2.66 and the Kd is 243 nM.
Substance L234W (antibody) registered a Kd of 1160 nM.
Regarding L235Y (antibody), the Fold was determined as 1.35 and the Kd is 479 nM.
L235I (antibody) had a Fold of 0.181 and a dissociation constant (Kd) of 3580 nM.
With A327D (antibody), the Fold is 0.733 and the Kd is 882 nM.
In turn, V266M/S267E (antibody) returned a Fold of 10.9 and a Kd of 59.2 nM.
Consider S267E/H268E (antibody), for which the Fold came out at 0.765 and the Kd is 845 nM.
For the substance L235A (antibody), the Fold was 0.0486 and the Kd stood at 13300 nM.
Take H268D (antibody): the Fold turned out to be 1.89 and the Kd stood at 342 nM.
Take L234F/S267E (antibody): the Fold is 0.509 and the Kd is 1270 nM.
In turn, H268E (antibody) returned a Fold of 1.43 and a Kd of 453 nM.
In the case of S239D/S267E/L328F (antibody), the Fold amounted to 1.71 and the Kd stood at 378 nM.
Taken in the same sequence, the figures for S239E (antibody) were 0.49 and 1320 nM.

The target in another experiment is human V158 FcγRIIIa (human) (UniProt P08637). Nature of the experiment: Biacore.
Chain of human V158 FcγRIIIa (human) (P08637 other isoform, or with tags, fused parts or gaps limits assumed): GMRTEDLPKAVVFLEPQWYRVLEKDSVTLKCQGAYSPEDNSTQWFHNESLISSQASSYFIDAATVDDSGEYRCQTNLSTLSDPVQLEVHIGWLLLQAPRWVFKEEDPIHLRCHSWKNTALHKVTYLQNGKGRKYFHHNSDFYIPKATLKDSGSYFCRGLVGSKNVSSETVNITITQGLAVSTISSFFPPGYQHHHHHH
In the case of L235Y/S239D/S267E (antibody), the Fold was 2.6 and the Kd is 73.5 nM.
In turn, S267E/A327D (antibody) displayed a Fold of 0.00199 and a dissociation constant Kd of 96300 nM.
In the case of G236S (antibody), the Fold worked out at 0.00367 and the Kd stood at 52200 nM.
S267D (antibody) returned a Fold of 1.51 and a Kd of 127 nM.
For S267E/H268E/L328F (antibody), the Fold turned out to be 0.092 and the Kd came out at 2080 nM.
S267E/A327E (antibody) had a Fold of 0.00894 and an equilibrium dissociation constant (Kd) of 21400 nM.
In turn, L234W (antibody) displayed a Kd of 6590 nM.
On to L235Y (antibody), for which the Fold was 0.504 and the Kd amounted to 380 nM.
On to L235I (antibody), for which the Fold came out at 0.903 and the Kd is 212 nM.
In turn, A327D (antibody) gave a Fold of 0.398 and a Kd of 481 nM.
With V266M/S267E (antibody), the Fold turned out to be 0.0448 and the Kd came out at 4270 nM.
For S267E/H268E (antibody), the Fold came out at 3.15 and the Kd turned out to be 60.8 nM.
Taken in the same sequence, the figures for L235A (antibody) were 0.314 and 609 nM.
For the substance L234D/S267E (antibody), the Fold was 0.14 and the Kd was 1370 nM.
H268D (antibody): the Fold was found to be 3.08 and the Kd worked out at 62.2 nM.
L234F/S267E (antibody) yielded a Fold of 0.0938 and a dissociation constant (Kd) of 2040 nM.
On to H268E (antibody), for which the Fold worked out at 2.19 and the dissociation constant Kd is 87.5 nM.
The substance S239D/S267E/L328F (antibody) gave a Fold of 0.216 and a Kd of 887 nM.
Turning to S239E (antibody), the Fold worked out at 3.49 and the Kd stood at 54.8 nM.

For a further experiment, the target named is FcγRIIaR (human) (UniProt P12318). Nature of the experiment: Biacore.
Chain of FcγRIIaR (human) (P12318 34-217 H167R limits assumed): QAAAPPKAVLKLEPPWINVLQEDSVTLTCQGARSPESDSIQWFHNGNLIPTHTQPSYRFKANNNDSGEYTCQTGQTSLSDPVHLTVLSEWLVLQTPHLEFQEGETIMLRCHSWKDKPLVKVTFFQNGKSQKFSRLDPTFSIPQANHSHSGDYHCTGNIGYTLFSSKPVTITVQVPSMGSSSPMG
L235Y/S239D/S267E (antibody) showed a Fold of 98.9 and a Kd of 8.68 nM.
Turning to S267E/A327D (antibody), the Fold amounted to 16.7 and the Kd came to 51.3 nM.
The substance G236S (antibody) registered a Fold of 2.33 and a Kd of 369 nM.
S267D (antibody) had a Fold of 8.99 and a Kd of 95.5 nM.
S267E/H268E/L328F (antibody) returned a Fold of 253 and a Kd of 3.4 nM.
In turn, S267E/A327E (antibody) had a Fold of 29.3 and a Kd of 29.3 nM.
The substance L235Y (antibody) came in with a Fold of 1.28 and a Kd of 669 nM.
L235I (antibody) registered a Fold of 0.666 and a Kd of 1290 nM.
The substance A327D (antibody) had a Fold of 1.6 and a Kd of 536 nM.
Consider V266M/S267E (antibody), for which the Fold turned out to be 30.7 and the dissociation constant (Kd) stood at 28 nM.
Turning to S267E/H268E (antibody), the Fold was determined as 41.7 and the dissociation constant Kd worked out at 20.6 nM.
Consider L235A (antibody), for which the Fold stood at 0.166 and the Kd amounted to 5180 nM.
Substance L234D/S267E (antibody) had a Fold of 12.7 and a Kd of 67.7 nM.
The substance H268D (antibody) gave a Fold of 4.19 and a Kd of 205 nM.
As to L234F/S267E (antibody), the Fold is 20.7 and the dissociation constant Kd worked out at 41.6 nM.
Substance H268E (antibody) displayed a Fold of 3.19 and a Kd of 269 nM.
With S239D/S267E/L328F (antibody), the Fold amounted to 416 and the Kd amounted to 2.06 nM.
Substance S239E (antibody) returned a Fold of 0.688 and a Kd of 1250 nM.
